Consider 14 molecules from US11814435B2, “Therapeutic antibodies and their uses” (PFIZER INC., priority 2015, dated 2023).

One test addresses T1, hBCMA (human BCMA) (Homo sapiens, UniProt Q02223).
T1 sequence (Q02223 1-184): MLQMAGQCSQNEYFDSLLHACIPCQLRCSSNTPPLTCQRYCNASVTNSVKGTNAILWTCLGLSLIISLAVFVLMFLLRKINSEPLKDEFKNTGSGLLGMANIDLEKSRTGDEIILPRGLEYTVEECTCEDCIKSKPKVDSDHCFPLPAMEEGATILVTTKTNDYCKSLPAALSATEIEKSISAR
In words: Kinetics and affinity of hBCMA/human IgG interactions by SPR (Bio-Rad Proteon XPR36). The class given is binding. The note with it: human BCMA, 37° C. An outline of the steps: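 Anti-BCMA IgGs were amine-coupled to a GLC chip at 25° C. BCMA analyte was run by kinetic titration at 0.08, 0.4, 2, 10 and 50 nM, with 2-minute associations and 2-hour dissociation, at 37° C. or 25° C. in HBS-T+ (pH 7.4) plus 1 mg/mL BSA. Double-referenced sensorgrams were fit to 1:1 Langmuir with mass transport.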

For a further test, the system named is Cyno BCMA. In words: Kinetics and affinity of cyno BCMA/human IgG interactions by SPR (Bio-Rad Proteon XPR36). The class given is binding, cynomolgus. The note with it: 37° C.

B1: COMBO_Rd4_6 nM_C10: anti-BCMA antibody (antibody, V domains shown)
VH: EVQLLESGGGLVQPGGSLRLSCAASGFTFSSYPMSWVRQAPGKGLEWVSAIGGSGGSIHYADSVKGRFTISRDNSKNTLYLQMNSLRAEDTAVYYCARYWPMDSWGQGTLVTVSS
VL: EIVLTQSPGTLSLSPGERATLSCRASQSVSSSYWGWYQQKPGQAPRLLMYDASIRATGIPDRFSGSGSGTDFTLTISRLEPEDFAVYYCQQYQCWPLTFGQGTKVEIK
Regarding B1, in the test with hBCMA (human BCMA), the “ka Human” value is 5.47e+06 M⁻¹ s⁻¹ and the “kd Human” value worked out at 9.72e-05 s⁻¹. Further, in the test with Cyno BCMA, the “ka Cyno” value came out at 1.52e+06 M⁻¹ s⁻¹ and the “kd Cyno” value was 0.00016 s⁻¹.

B2: COMBO_Rd4_0.6 nM_C04: anti-BCMA antibody (antibody, V domains shown)
VH: EVQLLESGGGLVQPGGSLRLSCAASGFTFSSYPMSWVRQAPGKGLEWVSAHIGSGGSTYYADSVKGRFTISRDNSKNTLYLQMNSLRAEDTAVYYCARYWPMDSWGQGTLVTVSS
VL: EIVLTQSPGTLSLSPGERATLSCRASQSVSSTYLAWYQQKPGQAPRLLMYDASIRATGIPDRFSGSGSGTDFTLTISRLEPEDFAVYYCQQYQSWPLTFGQGTKVEIK
On to B2, for which, in the test with hBCMA (human BCMA), the “ka Human” value amounted to 1.07e+07 M⁻¹ s⁻¹ and the “kd Human” value turned out to be 0.000158 s⁻¹. Besides, in the test on Cyno BCMA, the “ka Cyno” value amounted to 3.52e+06 M⁻¹ s⁻¹ and the “kd Cyno” value came to 0.000137 s⁻¹.

B3: COMBO_Rd4_0.6 nM_C21: anti-BCMA antibody (antibody, V domains shown)
VH: EVQLLESGGGLVQPGGSLRLSCAASGFTFSSYPMSWVRQAPGKGLEWVSAIGGSGGSLPYADSVKGRFTISRDNSKNTLYLQMNSLRAEDTAVYYCARYWPMDSWGQGTLVTVSS
VL: EIVLTQSPGTLSLSPGERATLSCRASQSVSSSYLAWYQQKPGQAPRLLMYDASIRATGIPDRFSGSGSGTDFTLTISRLEPEDFAVYYCQQYQSWPLTFGQGTKVEIK
In the case of B3, in the test with hBCMA (human BCMA), the “ka Human” value is 1.34e+07 M⁻¹ s⁻¹ and the “kd Human” value came to 0.000115 s⁻¹. Moreover, in the test on Cyno BCMA, the “ka Cyno” value was 3.63e+06 M⁻¹ s⁻¹ and the “kd Cyno” value was 0.000304 s⁻¹.

B4: COMBO_Rd4_0.6 nM_C20: anti-BCMA antibody (antibody, V domains shown)
VH: EVQLLESGGGLVQPGGSLRLSCAASGFTFSSYPMSWVRQAPGKGLEWVSAIGGSGGSLPYADSVKGRFTISRDNSKNTLYLQMNSLRAEDTAVYYCARYWPMDSWGQGTLVTVSS
VL: EIVLTQSPGTLSLSPGERATLSCRASQSVSYLYLAWYQQKPGQAPRLLMYDASIRATGIPDRFSGSGSGTDFTLTISRLEPEDFAVYYCQQYMEWPLTFGQGTKVEIK
With B4, in the test with hBCMA (human BCMA), the “ka Human” value stood at 7.65e+06 M⁻¹ s⁻¹ and the “kd Human” value is 0.000146 s⁻¹. Besides, in the test with Cyno BCMA, the “ka Cyno” value is 3.09e+06 M⁻¹ s⁻¹ and the “kd Cyno” value came out at 0.000284 s⁻¹.

B5: COMBO_Rd4_0.6 nM_C23: anti-BCMA antibody (antibody, V domains shown)
VH: EVQLLESGGGLVQPGGSLRLSCAASGFTFSSYPMSWVRQAPGKGLEWVSALFGSGGSTYYADSVKGRFTISRDNSKNTLYLQMNSLRAEDTAVYYCARYWPMDSWGQGTLVTVSS
VL: EIVLTQSPGTLSLSPGERATLSCRPRQSVSSSYLAWYQQKPGQAPRLLMYDASIRATGIPDRFSGSGSGTDFTLTISRLEPEDFAVYYCQQYQDWPLTFGQGTKVEIK
Regarding B5, in the test with hBCMA (human BCMA), the “ka Human” value stood at 7.39e+06 M⁻¹ s⁻¹ and the “kd Human” value was 0.00021 s⁻¹. Also, in the test on Cyno BCMA, the “ka Cyno” value worked out at 2.81e+06 M⁻¹ s⁻¹ and the “kd Cyno” value is 0.000531 s⁻¹.

B6: COMBO_Rd4_0.6 nM_C30: anti-BCMA antibody (antibody, V domains shown)
VH: EVQLLESGGGLVQPGGSLRLSCAASGFTFSSYPMSWVRQAPGKGLEWVSAIGGSGGSTYYADSVKGRFTISRDNSKNTLYLQMNSLRAEDTAVYYCARYWPMDSWGQGTLVTVSS
VL: EIVLTQSPGTLSLSPGERATLSCRASQSVSYMYLAWYQQKPGQAPRLLIYDASIRATGIPDRFSGSGSGTDFTLTISRLEPEDFAVYYCQQYKSWPLTFGQGTKVEIK
In the case of B6, in the test with hBCMA (human BCMA), the “ka Human” value was 4.35e+06 M⁻¹ s⁻¹ and the “kd Human” value was 0.000282 s⁻¹. In the test on Cyno BCMA, the “ka Cyno” value was 1.68e+06 M⁻¹ s⁻¹ and the “kd Cyno” value worked out at 0.000808 s⁻¹.

B7: COMBO_Rd4_0.6 nM_C02: anti-BCMA antibody (antibody, V domains shown)
VH: EVQLLESGGGLVQPGGSLRLSCAASGFTFSSYPMSWVRQAPGKGLEWVSAIGGSGGSLPYADSVKGRFTISRDNSKNTLYLQMNSLRAEDTAVYYCARYWPMDSWGQGTLVTVSS
VL: EIVLTQSPGTLSLSPGERATLSCRASIAVSSTYLAWYQQKPGQAPRLLMYDASIRATGIPDRFSGSGSGTDFTLTISRLEPEDFAVYYCQQYMVWPLTFGQGTKVEIK
Take B7: in the test with hBCMA (human BCMA), the “ka Human” value is 8.57e+06 M⁻¹ s⁻¹ and the “kd Human” value was found to be 0.000185 s⁻¹. In addition, in the test on Cyno BCMA, the “ka Cyno” value worked out at 3.01e+06 M⁻¹ s⁻¹ and the “kd Cyno” value came to 0.000494 s⁻¹.

B8: COMBO_Rd4_6 nM_C08: anti-BCMA antibody (antibody, V domains shown)
VH: EVQLLESGGGLVQPGGSLRLSCAASGFTFSSYPMSWVRQAPGKGLEWVSAIGGSGTWTYYADSVKGRFTISRDNSKNTLYLQMNSLRAEDTAVYYCARYWPMDSWGQGTLVTVSS
VL: EIVLTQSPGTLSLSPGERATLSCRASQSVSSSYLAWYQQKPGQAPRLLMYDASIRATGIPDRFSGSGSGTDFTLTISRLEPEDFAVYYCQQYQKWPLTFGQGTKVEIK
With B8, in the test with hBCMA (human BCMA), the “ka Human” value came out at 8.99e+06 M⁻¹ s⁻¹ and the “kd Human” value came to 0.000169 s⁻¹. In the test with Cyno BCMA, the “ka Cyno” value is 3.06e+06 M⁻¹ s⁻¹ and the “kd Cyno” value was 0.000428 s⁻¹.

B9: COMBO_Rd4_6 nM_C09: anti-BCMA antibody (antibody, V domains shown)
VH: EVQLLESGGGLVQPGGSLRLSCAASGFTFSSYPMSWVRQAPGKGLEWVSAIFASGGSTYYADSVKGRFTISRDNSKNTLYLQMNSLRAEDTAVYYCARYWPMDSWGQGTLVTVSS
VL: EIVLTQSPGTLSLSPGERATLSCRASQSVSAQYLAWYQQKPGQAPRLLMYDASIRATGIPDRFSGSGSGTDFTLTISRLEPEDFAVYYCQQYQAWPLTFGQGTKVEIK
B9: in the test with hBCMA (human BCMA), the “ka Human” value was 8.85e+06 M⁻¹ s⁻¹ and the “kd Human” value was 0.000143 s⁻¹. Also, in the test on Cyno BCMA, the “ka Cyno” value came out at 2.37e+06 M⁻¹ s⁻¹ and the “kd Cyno” value came out at 0.000318 s⁻¹.

B10: COMBO_Rd4_6 nM_C12: anti-BCMA antibody (antibody, V domains shown)
VH: EVQLLESGGGLVQPGGSLRLSCAASGFTFSSYPMSWVRQAPGKGLEWVSAALGSGGSTYYADSVKGRFTISRDNSKNTLYLQMNSLRAEDTAVYYCARYWPMDSWGQGTLVTVS
VL: EIVLTQSPGTLSLSPGERATLSCRASQSVSASYLAWYQQKPGQAPRLLMYDASIRATGIPDRFSGSGSGTDFTLTISRLEPEDFAVYYCQQYMSWPLTFGQGTKVEIK
For the molecule B10, in the test with hBCMA (human BCMA), the “ka Human” value was 1.38e+07 M⁻¹ s⁻¹ and the “kd Human” value was 0.00027 s⁻¹. In the test on Cyno BCMA, the “ka Cyno” value was determined as 3.29e+06 M⁻¹ s⁻¹ and the “kd Cyno” value turned out to be 0.000486 s⁻¹.

B11: COMBO_Rd4_6 nM_C25: anti-BCMA antibody (antibody, V domains shown)
VH: EVQLLESGGGLVQPGGSLRLSCAASGFTFSSYPMSWVRQAPGKGLEWVSAIGGSGGSTYYADSVKGRFTISRDNSKNTLYLQMNSLRAEDTAVYYCARYWPMDPWGQGTLVTVSS
VL: EIVLTQSPGTLSLSPGERATLSCRASQSVSSPYLAWYQQKPGQAPRLLMYDASIRATGIPDRFSGSGSGTDFTLTISRLEPEDFAVYYCQQYQSWPLTFGQGTKVEIK
Turning to B11, in the test with hBCMA (human BCMA), the “ka Human” value was found to be 7.98e+06 M⁻¹ s⁻¹ and the “kd Human” value was determined as 0.000113 s⁻¹. Moreover, in the test with Cyno BCMA, the “ka Cyno” value was found to be 2.85e+06 M⁻¹ s⁻¹ and the “kd Cyno” value amounted to 0.000226 s⁻¹.

B12: COMBO_Rd4_0.6 nM_C19: anti-BCMA antibody (antibody, V domains shown)
VH: EVQLLESGGGLVQPGGSLRLSCAASGFTFSSYPMSWVRQAPGKGLEWVSAIGGSGGSLPYADSVKGRFTISRDNSKNTLYLQMNSLRAEDTAVYYCARYWPMDSWGQGTLVTVSS
VL: EIVLTQSPGTLSLSPGERATLSCRASQSVSAVYLAWYQQKPGQAPRLLMYDASIRATGIPDRFSGSGSGTDFTLTISRLEPEDFAVYYCQQYRAWPLTFGQGTKVEIK
Turning to B12, in the test with hBCMA (human BCMA), the “ka Human” value was 7.86e+06 M⁻¹ s⁻¹ and the “kd Human” value amounted to 0.000155 s⁻¹. In addition, in the test with Cyno BCMA, the “ka Cyno” value was 2.92e+06 M⁻¹ s⁻¹ and the “kd Cyno” value stood at 0.000979 s⁻¹.

B13: COMBO_Rd4_0.6 nM_C09: anti-BCMA antibody (antibody, V domains shown)
VH: EVQLLESGGGLVQPGGSLRLSCAASGFTFSSYPMSWVRQAPGKGLEWVSAIGGSGGSLPYADSVKGRFTISRDNSKNTLYLQMNSLRAEDTAVYYCARYWPMDIWGQGTLVTVSS
VL: EIVLTQSPGTLSLSPGERATLSCRASQSVSSTYLAWYQQKPGQAPRLLMYDASIRATGIPDRFSGSGSGTDFTLTISRLEPEDFAVYYCQQYQEWPLTFGQGTKVEIK
With B13, in the test with hBCMA (human BCMA), the “ka Human” value came to 1.04e+07 M⁻¹ s⁻¹ and the “kd Human” value was found to be 0.000319 s⁻¹. Further, in the test with Cyno BCMA, the “ka Cyno” value was found to be 3.77e+06 M⁻¹ s⁻¹ and the “kd Cyno” value turned out to be 0.000346 s⁻¹.

B14: COMBO_Rd4_6 nM_C11: anti-BCMA antibody (antibody, V domains shown)
VH: EVQLLESGGGLVQPGGSLRLSCAASGFTFSSYPMSWVRQAPGKGLEWVSAIGGSGGSLGYADSVKGRFTISRDNSKNTLYLQMNSLRAEDTAVYYCARYWPMDSWGQGTLVTVSS
VL: EIVLTQSPGTLSLSPGERATLSCRASQSVSPLYLAWYQQKPGQAPRLLMYDASIRATGIPDRFSGSGSGTDFTLTISRLEPEDFAVYYCQQYKAWPLTFGQGTKVEIK
With B14, in the test with hBCMA (human BCMA), the “ka Human” value was 6.74e+06 M⁻¹ s⁻¹ and the “kd Human” value stood at 0.000124 s⁻¹. For the same molecule, in the test with Cyno BCMA, the “ka Cyno” value is 2.64e+06 M⁻¹ s⁻¹ and the “kd Cyno” value was determined as 0.000412 s⁻¹.
